# Results as given in patent US20140314793A1 (BIOINVENT INTERNATIONAL, published 2014).
# B1: B11 IgG1 (BI-505), fully human anti-ICAM-1 antibody (antibody, V domains shown)
# VH: EVQLLESGGGLVQPGGSLRLSCAASGFTFSNAWMSWVRQAPGKGLEWVAFIWYDGSNKYYADSVKGRFTISRDNSKNTLYLQMNSLRAEDTAVYYCARYSGWYFDYWGQGTLVTVSS
# VL: QSVLTQPPSASGTPGQRVTISCTGSSSNIGAGYDVHWYQQLPGTAPKLLIYDNNNRPSGVPDRFSGSKSGTSASLAISGLRSEDEADYYCQSYDSSLSAWLFGGGTKLTVL
# notes: That 6 is VH and 8 is VL follows only from the order 'VH and VL'; also called IgG B11
# Experiments:
# [1] = target: T1, intercellular cell adhesion molecule-1 (ICAM-1) on the surface of human cells (human, UniProt P05362 28-532); assay: FACS of bone marrow cells, patient 19:1
# T1 construct: whole, on cells; Endogenous antigen; also called CD54
# [2] = target: T1, intercellular cell adhesion molecule-1 …; assay: FACS of bone marrow cells, patient 4
# [3] = target: T1, intercellular cell adhesion molecule-1 …; assay: saturation binding of radioiodinated IgG to Ramos cells, unlabelled IgG subtracted
# Protocol: (§1) Specific binding was determined by subtracting binding in the presence of unlabeled competing protein from total binding.
# Analysis was performed in triplicates.
# (§2) The specific binding of [¹²⁵I]IgG to the cell surface was calculated by subtracting non-specific binding (binding in the presence of excess unlabelled IgG) from the total binding.
# [4] = target: T1, intercellular cell adhesion molecule-1 …; assay: FACS of bone marrow cells, patient 19:3
# [5] = target: T1, intercellular cell adhesion molecule-1 …; assay: FACS of bone marrow cells, patient 19:2
# [6] = target: T1, intercellular cell adhesion molecule-1 …; assay: FACS of bone marrow cells, patient 8
# [7] = target: T1, intercellular cell adhesion molecule-1 …; assay: 125I-IgG saturation binding on Ramos cells at 4° C., Rosenthal-Scatchard plot
# Protocol: as §1
# Antibody affinity constants (Kd values) and epitope numbers per cell were determined from Scatchard plot analysis according to Rosenthal et al. (Anal. Biochem. (1967) 20:525-532); Bylund and Yamamura (Methods in Neurotransmitter Analysed, New York: Raven Press Ltd., 1990); and Marquardt (J. Soc. Indust. Appl. Math. (1963) 11:431-441), as previously described (Brix et al., J. Clin. Invest. (1998) 102:283-293).
# as §2
# [8] = target: T1, intercellular cell adhesion molecule-1 …; assay: flow cytometry, AF647 Zenon-labelled IgG
# [9] = target: T1, intercellular cell adhesion molecule-1 …; assay: FACS of bone marrow cells, patient 14
# [10] = target: T1, intercellular cell adhesion molecule-1 …; assay: flow cytometry on ARH-77 cells, % of maximal cell ICAM-1 binding
# [11] = target: T1, intercellular cell adhesion molecule-1 …; assay: FACS of bone marrow cells, patient 18
# [12] = target: T1, intercellular cell adhesion molecule-1 …; assay: FACS of bone marrow cells, patient 22
# [13] = target: T1, intercellular cell adhesion molecule-1 …; assay: FACS of bone marrow cells, patient 5
# [14] = target: T1, intercellular cell adhesion molecule-1 …; assay: flow cytometry on myeloma cells of one patient, relapse versus diagnosis
# [15] = target: T1, intercellular cell adhesion molecule-1 …; assay: flow cytometry on patient bone marrow cells
# [16] = target: T1, intercellular cell adhesion molecule-1 …; assay: FACS of bone marrow cells, patient 10
# T1 sequence (P05362 28-532): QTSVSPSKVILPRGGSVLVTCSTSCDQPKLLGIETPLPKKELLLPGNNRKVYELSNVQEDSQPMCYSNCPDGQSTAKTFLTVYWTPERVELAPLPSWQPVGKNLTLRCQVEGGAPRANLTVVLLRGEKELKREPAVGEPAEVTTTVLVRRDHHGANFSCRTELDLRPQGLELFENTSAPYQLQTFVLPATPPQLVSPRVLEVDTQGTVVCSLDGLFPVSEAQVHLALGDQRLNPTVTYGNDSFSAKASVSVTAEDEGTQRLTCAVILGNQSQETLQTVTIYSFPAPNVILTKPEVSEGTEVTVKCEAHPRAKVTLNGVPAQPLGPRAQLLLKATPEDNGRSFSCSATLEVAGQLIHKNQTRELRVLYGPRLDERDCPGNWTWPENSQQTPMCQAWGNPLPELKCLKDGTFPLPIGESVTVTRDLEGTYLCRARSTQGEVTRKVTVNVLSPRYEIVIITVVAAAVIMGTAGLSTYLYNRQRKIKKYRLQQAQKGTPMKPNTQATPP
binder,measurement,setting,value
B1,fold increase of BI-505 epitope on MM cells compared to normal B cells,[1],10 fold
same,fold increase of BI-505 epitope on MM cells compared to normal B cells,[2],9 fold
same,EC50 (read off the curve),[3],~0.3 nM
same,fold increase of BI-505 epitope on MM cells compared to normal B cells,[4],4 fold
same,fold increase of BI-505 epitope on MM cells compared to normal B cells,[5],6 fold
same,fold increase of BI-505 epitope on MM cells compared to normal B cells,[6],12 fold
same,Kd,[7],~0.2 nM
same,"fold binding, Ramos versus NK cells",[8],23 fold
same,"fold binding, Ramos versus monocyte cells",[8],3.7 fold
same,"fold binding, Ramos versus peripheral blood B lymphocytes",[8],8.3 fold
same,fold increase of BI-505 epitope on MM cells compared to normal B cells,[9],5 fold
same,EC50 (read off the curve),[10],~0.05 µg/mL
same,fold increase of BI-505 epitope on MM cells compared to normal B cells,[11],8 fold
same,fold increase of BI-505 epitope on MM cells compared to normal B cells,[12],6 fold
same,fold increase of BI-505 epitope on MM cells compared to normal B cells,[13],9 fold
same,fold expression of the epitope after first relapse,[14],2 fold
same,"fold expression of the epitope, myeloma cells versus normal B cells",[15],10 fold
same,fold increase of BI-505 epitope on MM cells compared to normal B cells,[16],4 fold
